# Measurements published in the supplement of paper PMC11246515.
# ± gives the standard deviation of the averaged measurements.
# Experiment: total protein half-life in vivo (active degradation + dilution); higher = more stable protein
# [1] = E. coli NCM3722 delta-clpP delta-lon delta-hslV, growth: N-lim chemostat, doubling time 6 h
# [2] = E. coli NCM3722 delta-clpP, growth: N-lim chemostat, doubling time 6 h
# [3] = E. coli NCM3722 delta-hslV, growth: N-lim chemostat, doubling time 6 h
# [4] = E. coli NCM3722 delta-lon, growth: N-lim chemostat, doubling time 6 h
# [5] = E. coli NCM3722 delta-smpB, growth: N-lim chemostat, doubling time 6 h
# [6] = wild type E. coli NCM3722, growth: C-lim chemostat, doubling time 3 h
# [7] = wild type E. coli NCM3722, growth: C-lim chemostat, doubling time 6 h
# [8] = wild type E. coli NCM3722, growth: C-lim chemostat, doubling time 12 h
# [9] = wild type E. coli NCM3722, growth: N-lim chemostat, doubling time 6 h
# [10] = wild type E. coli NCM3722, growth: N-lim chemostat, doubling time 12 h
# [11] = wild type E. coli NCM3722, growth: P-lim chemostat, doubling time 6 h
# [12] = wild type E. coli NCM3722, growth: P-lim chemostat, doubling time 12 h
Sequence,total protein half-life in vivo [1] [h],total protein half-life in vivo [2] [h],total protein half-life in vivo [3] [h],total protein half-life in vivo [4] [h],total protein half-life in vivo [5] [h],total protein half-life in vivo [6] [h],total protein half-life in vivo [7] [h],total protein half-life in vivo [8] [h],total protein half-life in vivo [9] [h],total protein half-life in vivo [10] [h],total protein half-life in vivo [11] [h],total protein half-life in vivo [12] [h]
MSFFHASQRDALNQSLAEVQGQINVSFEFFPPRTSEMEQTLWNSIDRLSSLKPKFVSVTYGANSGERDRTHSIIKGIKDRTGLEAAPHLTCIDATPDELRTIARDYWNNGIRHIVALRGDLPPGSGKPEMYASDLVTLLKEVADFDISVAAYPEVHPEAKSAQADLLNLKRKVDAGANRAITQFFFDVESYLRFRDRCVSAGIDVEIIPGILPVSNFKQAKKFADMTNVRIPAWMAQMFDGLDDDAETRKLVGANIAMDMVKILSREGVKDFHFYTLNRAEMSYAICHTLGVRPGL [P0AEZ1],3.64 ± 0.65,3.18 ± 0.53,2.96 ± 0.52,3.54 ± 0.14,3.16 ± 0.31,2.99 ± 0.18,4.97 ± 0.25,8.59 ± 0.26,3.02 ± 0.1,4.47 ± 0.053,5.51 ± 0.12,10.7 ± 0.34
MSFMVSEEVTVKEGGPRMIVTGYSSGMVECRWYDGYGVKREAFHETELVPGEGSRSAEEV,5.18,0.609 ± 0.66,,,,0.36,0.469,,,,,
MSFSEFYQRSINEPEQFWAEQARRIDWQTPFTQTLDHSNPPFARWFCEGRTNLCHNAIDRWLEKQPEALALIAVSSETEEERTFTFRQLHDEVNAVASMLRSLGVQRGDRVLVYMPMIAEAHITLLACARIGAIHSVVFGGFASHSVAARIDDAKPVLIVSADAGARGGKIIPYKKLLDDAISQAQHQPRHVLLVDRGLAKMARVSGRDVDFASLRHQHIGARVPVAWLESNETSCILYTSGTTGKPKGVQRDVGGYAVALATSMDTIFGGKAGSVFFCASDIGWVVGHSYIVYAPLLAGMATIVYEGLPTWPDCGVWWTIVEKYQVSRMFSAPTAIRVLKKFPTAEIRKHDLSSLEVLYLAGEPLDEPTASWVSNTLDVPVIDNYWQTESGWPIMAIARGLDDRPTRLGSPGVPMYGYNVQLLNEVTGEPCGVNEKGMLVVEGPLPPGCIQTIWGDDGRFVKTYWSLFSRPVYATFDWGIRDADGYHFILGRTDDVINVAGHRLGTREIEESISSHPGVAEVAVVGVKDALKGQVAVAFVIPKESDSLEDRDVAHSQEKAIMALVDSQIGNFGRPAHVWFVSQLPKTRSGKMLRRTIQAICEGRDPGDLTTIDDPASLDQIRQAMEE,,,,,,,0.366 ± 0.12,0.611,,,,
MSFWKVAAAQYEPRKTSLTEQVAHHLEFVRAAARQQCQLLVFPSLSLLGCDYSRRALPAPPDLSLLDPLCYAATTWRMTIIAGLPVEYNDRFIRGIAVFAPWRKTPGIYHQSHGACLGRRSRTITVVDEQPQGMDMDPTCSLFTTGQCLGEPDLLASARRLQFFSHQYSIAVLMANARGNSALWDEYGRLIVRADRGSLLLVGQRSSQGWQGDIIPLR,5.47,,,,,,,,,,,
MSGARLHTLLPELTTRQSVMVVGAAVIDVIADAYALPWRGCDIELKQQSVNVGGCALNIAVALKRLGIEAGNALPLGQGVWAEMIRNRMAKEGLISLIDNAEGDNGWCLALVEPDGERTFMSFSGVENQWNRQWLARLTVAPGSLLYFSGYQLASPCGELLVEWLEELQDVTPFIDFGPRIGDIPDALLARIMACRPLVSLNRQEAEIAAERFALSAEITTLGKQWQEKFAAPLIVRLDKEGAWYFSNDASGCIPAFPTQVVDTIGAGDSHAGGVLAGLASGLPLADAVLLGNAVASWVVGHRGGDCAPTREELLLAHKNV,4.46 ± 0.92,3.62 ± 0.076,,,3.76 ± 0.33,3.02 ± 0.012,4.79 ± 0.53,6.71 ± 3.7,3.67 ± 0.096,6.33 ± 1.1,4.76 ± 0.76,11.1 ± 2.4
MSGFFQRLFGKDNKPAIARGPLGLHLNSGFTLDTLAFRLLEDELLIALPGEEFTVAAVSHIDLGGGSQIFRYYTSGDEFLQINTTGGEDIDDIDDIKLFVYEESYGISKESHWREAINAKAMGAMTLNWQEKRWQRFFNSEEPGNIEPVYMLEKVENQNHAKWEVHNFTMGYQRQVTEDTYEYLLLNGEESFNDLGEPEWLFSRALGVDIPLTSLHIIG,4.45,,6.47 ± 1,> 8,,3.22,,12.2,5.26,,6.38,
MSGGLVTAAYIVAAILFIFSLAGLSKHETSRQGNNFGIAGMAIALIATIFGPDTGNVGWILLAMVIGGAIGIRLAKKVEMTEMPELVAILHSFVGLAAVLVGFNSYLHHDAGMAPILVNIHLTEVFLGIFIGAVTFTGSVVAFGKLCGKISSKPLMLPNRHKMNLAALVVSFLLLIVFVRTDSVGLQVLALLIMTAIALVFGWHLVASIGGADMPVVVSMLNSYSGWAAAAAGFMLSNDLLIVTGALVGSSGAILSYIMCKAMNRSFISVIAGGFGTDGSSTGDDQEVGEHREITAEETAELLKNSHSVIITPGYGMAVAQAQYPVAEITEKLRARGINVRFGIHPVAGRLPGHMNVLLAEAKVPYDIVLEMDEINDDFADTDTVLVIGANDTVNPAAQDDPKSPIAGMPVLEVWKAQNVIVFKRSMNTGYAGVQNPLFFKENTHMLFGDAKASVDAILKAL [P0AB67],6.55 ± 0.55,6.742 ± 0.019,6.72 ± 1.3,5.57 ± 0.22,6.05 ± 0.38,3.36 ± 0.3,6.08 ± 1.6,14.8 ± 0.91,6.02 ± 0.96,11.7 ± 0.14,6.5 ± 0.41,11.6 ± 1.1
MSGLRPALSTFIFLLLITGGVYPLLTTVLGQWWFPWQANGSLIREGDTVRGSALIGQNFTGNGYFHGRPSATAEMPYNPQASGGSNLAVSNPELDKLIAARVAALRAANPDASASVPVELVTASASGLDNNITPQAAAWQIPRVAKARNLSVEQLTQLIAKYSQQPLVKYIGQPVVNIVELNLALDKLDE,,,4.28,,,,,,,,,11.7 ± 2.1
MSHLAELVASAKAAISQASDVAALDNVRVEYLGKKGHLTLQMTTLRELPPEERPAAGAVINEAKEQVQQALNARKAELESAALNARLAAETIDVSLPGRRIENGGLHPVTRTIDRIESFFGELGFTVATGPEIEDDYHNFDALNIPGHHPARADHDTFWFDTTRLLRTQTSGVQIRTMKAQQPPIRIIAPGRVYRNDYDQTHTPMFHQMEGLIVDTNISFTNLKGTLHDFLRNFFEEDLQIRFRPSYFPFTEPSAEVDVMGKNGKWLEVLGCGMVHPNVLRNVGIDPEVYSGFAFGMGMERLTMLRYGVTDLRSFFENDLRFLKQFK,5.84 ± 0.27,6.11 ± 0.96,5.72 ± 0.43,6.07 ± 0.69,4.98 ± 0.13,3.49 ± 0.22,6.19 ± 0.32,12.5 ± 0.82,5.37 ± 0.42,9.85 ± 0.2,6.28 ± 0.36,12.91 ± 0.048
MSHLDNGFRSLTLQRFPATDDVNPLQAWEAADEYLLQQLDDTEIRGPVLILNDAFGALSCALAEHKPYSIGDSYISELATRENLRLNGIDESSVKFLDSTADYPQQPGVVLIKVPKTLALLEQQLRALRKVVTSDTRIIAGAKARDIHTSTLELFEKVLGPTTTTLAWKKARLINCTFNEPQLADAPQTVSWKLEGTDWTIHNHANVFSRTGLDIGARFFMQHLPENLEGEIVDLGCGNGVIGLTLLDKNPQAKVVFVDESPMAVASSRLNVETNMPEALDRCEFMINNALSGVEPFRFNAVLCNPPFHQQHALTDNVAWEMFHHARRCLKINGELYIVANRHLDYFHKLKKIFGNCTTIATNNKFVVLKAVKLGRRR,5.55 ± 0.53,5.19 ± 0.25,5.29 ± 0.23,5.64 ± 0.14,4.7 ± 0.66,3.05 ± 0.51,5.87 ± 0.088,11.9 ± 1.5,5.175 ± 0.041,8.16 ± 1.4,5.7,
MSHLKDPTTQYYTGEYPKQKQPTPGIQAKMTPVPDCGEKTYVGSGRLKDRKALVTGGDSGIGRAAAIAYAREGADVAISYLPVEEEDAQDVKKIIEECGRKAVLLPGDLSDEKFARSLVHEAHKALGGLDIMALVAGKQVAIPDIADLTSEQFQKTFAINVFALFWLTQEAIPLLPKGASIITTSSIQAYQPSPHLLDYAATKAAILNYSRGLAKQVAEKGIRVNIVAPGPIWTALQISGGQTQDKIPQFGQQTPMKRAGQPAELAPVYVYLASQESSYVTAEVHGVCGGEHLG [P0AG84],5.31 ± 0.2,5.27 ± 0.099,5.82 ± 0.34,5.57 ± 0.34,5.06 ± 0.66,3.13 ± 0.54,6.3 ± 0.59,11.4 ± 2.8,5.32 ± 0.27,9.18 ± 0.35,5.5 ± 0.43,10.73 ± 0.025
MSHNVTPNTSRVELRKTLTLVPVVMMGLAYMQPMTLFDTFGIVSGLTDGHVPTAYAFALIAILFTALSYGKLVRRYPSAGSAYTYAQKSISPTVGFMVGWSSLLDYLFAPMINILLAKIYFEALVPSIPSWMFVVALVAFMTAFNLRSLKSVANFNTVIVVLQVVLIAVILGMVVYGVFEGEGAGTLASTRPFWSGDAHVIPMITGATILCFSFTGFDGISNLSEETKDAERVIPRAIFLTALIGGMIFIFATYFLQLYFPDISRFKDPDASQPEIMLYVAGKAFQVGALIFSTITVLASGMAAHAGVARLMYVMGRDGVFPKSFFGYVHPKWRTPAMNIILVGAIALLAINFDLVMATALINFGALVAFTFVNLSVISQFWIREKRNKTLKDHFQYLFLPMCGALTVGALWVNLEESSMVLGLIWAAIGLIYLACVTKSFRNPVPQYEDVA [P0AA47],,,,,,0.699 ± 0.063,,,,,,
MSHPALTQLRALRYCKEIPALDPQLLDWLLLEDSMTKRFEQQGKTVSVTMIREGFVEQNEIPEELPLLPKESRYWLREILLCADGEPWLAGRTVVPVSTLSGPELALQKLGKTPLGRYLFTSSTLTRDFIEIGRDAGLWGRRSRLRLSGKPLLLTELFLPASPLY,4.9 ± 0.4,2.28 ± 0.017,3.04 ± 0.035,3.5 ± 0.31,2.14 ± 0.061,2.41 ± 0.13,4.27 ± 0.27,7.06 ± 0.53,3.15 ± 0.3,4.66 ± 0.034,4.77 ± 0.55,8.85 ± 0.47
MSHQKIIQDLIAWIDEHIDQPLNIDVVAKKSGYSKWYLQRMFRTVTHQTLGDYIRQRRLLLAAVELRTTERPIFDIAMDLGYVSQQTFSRVFRRQFDRTPSDYRHRL [P0A9E2],6.13 ± 1.3,,,,,,,,,,,
MSHRDTLFSAPIARLGDWTFDERVAEVFPDMIQRSVPGYSNIISMIGMLAERFVQPGTQVYDLGCSLGAATLSVRRNIHHDNCKIIAIDNSPAMIERCRRHIDAYKAPTPVDVIEGDIRDIAIENASMVVLNFTLQFLEPSERQALLDKIYQGLNPGGALVLSEKFSFEDAKVGELLFNMHHDFKRANGYSELEISQKRSMLENVMLTDSVETHKARLHNAGFEHSELWFQCFNFGSLVALKAEDAA,4.36 ± 0.1,4.266 ± 0.023,3.422 ± 0.01,4.69 ± 0.25,3.28 ± 0.41,2.85 ± 0.079,4.75 ± 0.061,6.64 ± 0.99,3.17 ± 0.74,4.86 ± 0.5,4.66 ± 0.48,9.24 ± 0.053
MSHTIRDKQKLKARASKIQGQVVALKKMLDEPHECAAVLQQIAAIRGAVNGLMREVIKGHLTEHIVHQGDELKREEDLDVVLKVLDSYIK,7.38 ± 0.4,7.02 ± 0.26,,6.29 ± 0.15,,> 4,7.3 ± 0.65,10.8,5.53 ± 0.39,11.2,4.14 ± 1.8,11.9 ± 0.86
MSIDRTSPLKPVSTVQPRETTDAPVTNSRAAKTTASTSTSVTLSDAQAKLMQPGSSDINLERVEALKLAIRNGELKMDTGKIADALINEAQQDLQSN [P0AEM4],,,,,,0.693 ± 0.42,0.442,0.862 ± 0.19,,,,
MSIDWNWGIFLQQAPFGNTTYLGWIWSGFQVTIALSICAWIIAFLVGSFFGILRTVPNRFLSGLGTLYVELFRNVPLIVQFFTWYLVIPELLPEKIGMWFKAELDPNIQFFLSSMLCLGLFTAARVCEQVRAAIQSLPRGQKNAALAMGLTLPQAYRYVLLPNAYRVIVPPMTSEMMNLVKNSAIASTIGLVDMAAQAGKLLDYSAHAWESFTAITLAYVLINAFIMLVMTLVERKVRLPGNMGGK [P0AER3],6.3 ± 0.68,5.73 ± 0.57,7.02 ± 1.3,6.414 ± 0.029,5.64 ± 0.34,3.1 ± 0.078,5.71 ± 1.4,12.4,5.35 ± 0.4,12.1 ± 4.6,6.73,12.4 ± 1.9
